One data set concerns the target interleukin-6 (IL-6) (UniProt P05231 30-212). Briefly: organic electrochemical transistor, aptamer on Au gate; PBS; linear response 0.5 pM to 50 nM; also in ALB and serum; SPR: PBS-P+ pH 7.4, 5% DMSO, CM5 chip, 30 uL/min, 60 s injections, temperature not stated; OECT: PBS 1x pH 7.4 (also albumin, serum), VDS 0.1 V. As to conditions: protein: commercial.
The next data set addresses interferon-gamma (IFN-γ) (UniProt P01579 24-161). Briefly: organic electrochemical transistor, aptamer on Au gate; no noticeable current change; SPR: PBS-P+ pH 7.4, 5% DMSO, CM5 chip, 30 uL/min, 60 s injections, temperature not stated; OECT: PBS 1x pH 7.4 (also albumin, serum), VDS 0.1 V. As to conditions: protein: commercial; chain copies: 2.
Another data set deals with T1, interleukin-11 (IL-11) (UniProt P20809 22-199).
T1 sequence: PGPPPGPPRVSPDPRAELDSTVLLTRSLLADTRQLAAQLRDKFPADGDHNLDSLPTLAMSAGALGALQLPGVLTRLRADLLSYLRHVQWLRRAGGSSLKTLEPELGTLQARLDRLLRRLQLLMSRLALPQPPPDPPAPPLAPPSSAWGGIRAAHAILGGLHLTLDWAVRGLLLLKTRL
Described as above. As to conditions: protein: commercial.

Chain of interleukin-6 (IL-6) (P05231 30-212): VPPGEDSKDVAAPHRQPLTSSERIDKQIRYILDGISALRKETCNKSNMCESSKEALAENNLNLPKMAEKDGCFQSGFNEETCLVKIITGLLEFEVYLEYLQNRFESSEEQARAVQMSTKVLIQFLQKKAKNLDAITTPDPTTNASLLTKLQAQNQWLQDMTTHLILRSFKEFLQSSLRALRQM
Chain of interferon-gamma (IFN-γ) (P01579 24-161): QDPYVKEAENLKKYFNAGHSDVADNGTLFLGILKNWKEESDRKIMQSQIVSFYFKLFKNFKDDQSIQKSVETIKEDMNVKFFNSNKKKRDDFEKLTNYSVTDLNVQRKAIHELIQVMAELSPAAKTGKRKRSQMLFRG

B1: IL-6 aptamer, thiolated, on Au gate (ssDNA)
DNA: GGTGGCAGGAGGACTATTTATTTGCTTTTCT
modifications: 5' C6 thiol, immobilized on gold via Au-S
In the case of B1, the values for the binding result with interleukin-6 (IL-6), in the data set with interferon-gamma (IFN-γ) and with interleukin-11 (IL-11) were “binds”, “no binding” and “no binding”, respectively.

These data come from article PMC12561412, “Aptamer‐Mediated Artificial Synapses for Neuromorphic Modulation of Inflammatory Signaling via Organic Electrochemical Transistor”.
